Entries after “also recorded” stand apart in the source; their conditions may differ.
Target: T1, HLA-A2 on T2 cells (Homo sapiens, UniProt P04439, D140Y/D185E/D98H/E176V/E277Q/G131W/G231S/I119V/I121R/I166T/I218V/L300P/L318F/N151K/N90K/P208A/P217A/Q86G/Q94H/R138H/R169H/T345S)
T1 construct: T2 cell line expressing the HLA-A2 molecules was obtained from Dr Peter Creswell; endogenous in cells; host or cells: T2 cell line (TAP-deficient human cell line)
Assay: in vitro HLA-A2 stabilization (peptide-induced MHC class 1 assembly assay, FACS) on T2 cells
Assay type: cell-based
Details: FIG. 1; for binding to and stabilization of membrane-bound HLA-A2 (shift of fluorescent peak): BB7.2 antibody, FACS
Procedure: Location of the potential CTL containing motifs of the HIV-1 (LAI) Rev protein has been predicted by the reported peptide-binding motif algorithms. […] The ability of the peptides containing these motifs to bind and stabilize membrane-bound HLA-A2 molecule was assessed using the T2 cell line. The cell line has been well documented to have defective TAP transporter function resulting in the majority of the intracellularly generated peptides being unable to be transported into the endoplasmic reticulum to associate with the newly synthesized HLA class 1 molecules, i.e. HLA-A2 (see references 4, 5). […] Upon interaction with suitable peptides introduced exogenously, the stability of the HLA-A2 molecules can be restored.
T2 cell line expressing the HLA-A2 molecules was obtained from Dr Peter Creswell at the Howard Hughes Research Institute of Yale University. The cells were propagated in Iscove's complete medium (Iscove's medium supplemented with 10% heat-inactivated bovine serum, 120.0 units per ml of penicilin G sodium, 120 μg per ml of streptomycin sulphate, and 0.35 mg per ml of L-glutamine). The ability of individual 8 to 13 mer peptides, prepared as described in Example 1 and identified in Table 1, to bind and modulate the stability of the A2 molecules on T2 cells was determined using a peptide-induced MHC class 1 assembly assay, which was modified from a protocol described by Yuping Deng et al. (ref. 6).
In essence, 1×10^6 T2 cells were incubated with a specified concentration of the test peptide in 250.0 μl of Iscove's serum-free medium (Iscove's medium supplemented with 120.0 units per ml of penicillin G sodium, 120.0 μg per ml of streptomycin sulphate and 0.35 mg per ml of L-glutamine) in a sterile Eppendorf tube at 37° C. overnight. The cells were then incubated on ice for 30 min before 1.0 ml of Iscove's complete medium supplemented with 5.0 μg per ml of brefeldin A, 12.5 μg per ml of anisomycin and 5.0 μg per ml of cyclohexamide was added. The samples were then incubated for 3.0 hr in a 37° C. CO2 incubator.
In the presence of the drugs, further protein synthesis and intracellular delivery of HLA-A2 molecules to the cell surface are inhibited, and de-stabilization of the conformation of the membrane-bound class 1 molecules at the physiological temperature occurs.
The cells were then washed twice with ice-cold PBA (a buffer containing 0.9% sodium chloride, 0.5% bovine serum albumin and 0.02% sodium azide). 100.0 μl of PBA containing 5.0 μg of a conformation-sensitive HLA-A2-specific mouse monoclonal antibody, BB7.2 (ref. 7), was then added to each test sample. The reaction was allowed to take place on ice for 45 min. The cells were then washed three times with ice-cold PBA.
The binding of BB7.2 was then detected by adding […] containing 1.0 μg of goat anti-mouse IgG F(ab′) fluorescein (FITC) conjugate to each cell sample. After 30 min incubation on ice, the cells were washed twice with PBA, and twice again with PBS, pH 7.2. Cells were fixed immediately after washing was completed by adding 100.0 μl of 1.0% paraformaldehyde to the cell pellet. The cells were gently resuspended and were FACS analysed usually within three days after the experiments were completed.
The fluorescence index, which is an indicator for increased density of membrane-bound A2 molecules, was calculated by dividing the mean fluorescence of an experimental sample (peptide treated T2 cells) by the mean fluorescence of the control sample (T2 cells not treated with peptide).

Sequence | binding to and stabilization of membrane-bound HLA-A2 (shift of fluorescent peak) | order of potency by comparison of fluorescence indices
YLGRSAEPVPL (Human immunodeficiency virus type 1) [CLP-178] | bound to HLA-A2 on T2 cells; also recorded: able to bind and stabilize; also recorded: capable of binding to HLA-A2 on T2 cells | CLP-177>CLP-72>CLP-178>CLP-182
PLQLPPLERLIL [CLP-182] | bound to HLA-A2 on T2 cells; also recorded: able to bind and stabilize; also recorded: capable of binding to HLA-A2 on T2 cells | CLP-177>CLP-72>CLP-178>CLP-182
ILVESPAVL (Human immunodeficiency virus type 1) [CLP-72] | bound to HLA-A2 on T2 cells; also recorded: able to bind and stabilize; also recorded: capable of binding to HLA-A2 on T2 cells | CLP-177>CLP-72>CLP-178>CLP-182
YLGRSAEPV (Human immunodeficiency virus type 1) [CLP-177] | bound to HLA-A2 on T2 cells; also recorded: able to bind and stabilize; also recorded: capable of binding to HLA-A2 on T2 cells | CLP-177>CLP-72>CLP-178>CLP-182
